Values belong to the binder of their own block, whether it stands above or below them.
Molecular target: CD38 FC融合标签蛋白 (CD38 Fc fusion tag protein, expressed in 293F cells) (UniProt P28907)
Assay: indirect ELISA, CD38 protein coated at 1 μg/ml, B cell culture supernatant, goat anti-rabbit IgG-HRP

OD450: 2.23 OD450
B1: 命名为8A1的兔重组单克隆抗体 (anti-CD38 rabbit recombinant monoclonal antibody 8A1) (antibody, V domains shown)
VH: QSLEESGGDLVKPAGSLTLTCTASGFSFSTSYWICWVRQAPGKGLEWIACIYTGSGSTPYASWAKGRFTISKTSSTTVTLQVTSLTAADTATYFCARDPGVHSGTNLWGQGTLVSVSS
VL: DVVMTQTPASVSAAVGGTVTIKCQASEDINTLLAWYQQKPGQPPKLLIYLASNLASGVSSRFKGSRSGTEFTLTISDLECADAATYYCQCTYYGSTYGGTFGGGTEVVVK

OD450: 1.78 OD450
B2: 命名为8H7的兔重组单克隆抗体 (anti-CD38 rabbit recombinant monoclonal antibody 8H7) (antibody, V domains shown)
VH: QSVKESEGGLFKPTDTLTLTCTVSGFSLSSYGVIWVRQAPGKGLEYIGFVAVGGTTYYANWAKSRSTITRNTNENTVTLKMTSLTAADTATYFCVRNGVSGSSDIWGPGTLVTVSS
VL: AYDMTQTPASVSEPVGGTVTIKCQASQSIYSYLSWYQQKLGQPPKLLIYSASTLASGVSSRFKGSGSGTEYTLTISGVECADAATYYCQQDYSGSNVDNTFGGGTEVVVK

Source: patent CN115433277A
